Self-cleavage data for 167 variants are collected here from the RNAGym collection of RNA variant scans (doi:10.1093/nar/gkz1192).

First the molecules themselves.
B1: CPEB3 Ribozyme (parent)
chain: UAACAGGGGGCCACAGCAGAAGCGUUCACGUCGCAGCCCCUGUCAGAUUCUGGUGAAUCUGCGAAUUCUGCUGUAUAUCUC

Variants of B1 are the subject of this series. The series can be described thus: self-cleavage, relative activity (ratio to wild type); higher = more cleavage; in vitro, sequencing. The procedure, abridged: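 CPEB3 self-cleaving ribozyme mutant libraries were made by rounds of error-prone PCR, barcoded, and transcribed in vitro with T7 RNA polymerase for 5 hours at 37°C. Cleavage occurred during transcription and a 15 min DNase I step before EDTA stop. RNAs were reverse transcribed with template switching and Illumina-sequenced, with DNA sequencing mapping barcodes to variants. Relative activity is the variant's cleaved/total read fraction divided by wild type's (minimum 5 reads), averaged across three batches.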
Regarding G7U U58C, the self-cleavage turned out to be 0.2.
Regarding G7U U58A, the self-cleavage is 0.25.
In the case of G7C A20U it was 0.22; in that of G7A G53A, 0.19; in that of G7C A45G, 0.26.
On to G7A G55A, for which the self-cleavage was 0.15.
Consider G7A G55U, for which the self-cleavage is 0.2.
To G7U A35U belongs 0.38; to G7U A35G, 0.14.
For the variant G7A U58C, the self-cleavage came to 0.13.
In the case of G7A U58A it was 0.27; in that of G7A G8C, 0.15.
In the case of G7U A47C it was 0.37.
In the case of G7U A47G, the self-cleavage is 0.29.
With G7C U49A, the self-cleavage is 0.26.
In the case of G7A U31C it was 0.25.
Take G7A U31G: the self-cleavage worked out at 0.14.
To G7U U51C belongs 0.28; to G7U U51A, 0.21.
In the case of G7U U51G it was 0.2.
To G7A U66C belongs 0.13; to G7U U60C, 0.1; to G7U A75G, 0.2.
G7U A75U: the self-cleavage was 0.13.
Regarding G7U G73U, the self-cleavage was 0.23.
For the variant G7U U49C, the self-cleavage came out at 0.11.
To G7U U26C belongs 0.15; to G7U U26A, 0.21.
In the case of G7U A45G it was 0.22; in that of G7U A45C, 0.2.
For the variant G7U A45U, the self-cleavage worked out at 0.14.
Take G7U G30A: the self-cleavage is 0.16.
Regarding G7C A18G, the self-cleavage was determined as 0.33.
To G7C G24C belongs 0.15; to G7C A13G, 0.32.
To G7C A13U belongs 0.26.
As for G7C A13C, the self-cleavage worked out at 0.09.
To G7A C62U belongs 0.22; to G7C A57U, 0.19; to G7A U80A, 0.25.
G7A U80C: the self-cleavage worked out at 0.29.
To G7A C37A belongs 0.11; to G7A C29A, 0.36.
In the case of G7U A64C it was 0.13.
For G7U A64G, the self-cleavage came out at 0.14.
To G7U A64U belongs 0.13; to G7C A75U, 0.31; to G7A U72C, 0.48.
Take G7C U26C: the self-cleavage amounted to 0.35.
In the case of G7A U26C it was 0.25.
In the case of G7A U26A it was 0.28.
In the case of G7A U26G, the self-cleavage was determined as 0.07.
For the variant G7A G30A, the self-cleavage was 0.35.
Take G7U U48A: the self-cleavage stood at 0.07.
On to G7A U54G, for which the self-cleavage was 0.22.
With G7A U54A, the self-cleavage came out at 0.47.
In the case of G7A U54C, the self-cleavage was determined as 0.38.
To G7C U31A belongs 0.25.
As to G7C U31C, the self-cleavage is 0.41.
In the case of G7A U25C it was 0.33; in that of G7A U25A, 0.15; in that of G7U C34U, 0.07.
In the case of G7C U72G it was 0.27; in that of G7C U72C, 0.37.
In the case of G7U G55A it was 0.08; in that of G7A U69C, 0.26.
Consider G7A U69A, for which the self-cleavage amounted to 0.39.
Take G7U G36C: the self-cleavage turned out to be 0.14.
On to G7U A18G, for which the self-cleavage worked out at 0.19.
In the case of G7A U49C it was 0.2.
In the case of G7U C37A it was 0.17; in that of G7U C37G, 0.53; in that of G7U A65G, 0.4.
To G7A U41C belongs 0.25; to G7A U41A, 0.13; to G7U A15G, 0.27.
Regarding G7U A15U, the self-cleavage turned out to be 0.23.
Consider G7C A56G, for which the self-cleavage was determined as 0.23.
For G7A C40U, the self-cleavage amounted to 0.3.
As to G7A C40A, the self-cleavage was 0.18.
To G7U A13U belongs 0.34.
With G7U A13G, the self-cleavage amounted to 0.18.
As for G7U C50A, the self-cleavage turned out to be 0.06.
In the case of G7U C32U, the self-cleavage worked out at 0.07.
In the case of G7C G9A it was 0.23.
Consider G7C G9U, for which the self-cleavage was 0.36.
In the case of G7U C39U, the self-cleavage worked out at 0.19.
In the case of G7U G24A, the self-cleavage was 0.22.
To G7A G10A belongs 0.24.
To G7C U43A belongs 0.24; to G7C U43C, 0.36.
In the case of G7A G16C it was 0.23.
G7U G42U: the self-cleavage worked out at 0.14.
To G7C A15G belongs 0.21; to G7C A15U, 0.18; to G7C G30U, 0.14.
In the case of G7A U74C it was 0.5; in that of G7A U74A, 0.09.
On to G7A C59A, for which the self-cleavage worked out at 0.04.
To G7C A65G belongs 0.22; to G7U A20G, 0.27; to G7U A20U, 0.11.
Take G7C U60C: the self-cleavage is 0.2.
To G7A U51A belongs 0.35; to G7A U51G, 0.1.
For G7A U51C, the self-cleavage was 0.2.
To G7U A21U belongs 0.34; to G7U A21G, 0.31; to G7U U54C, 0.24.
Take G7C U66C: the self-cleavage turned out to be 0.5.
In the case of G7C U48C it was 0.4; in that of G7A G33U, 0.07.
In the case of G7U U25A, the self-cleavage came to 0.15.
In the case of G7U U25C it was 0.2; in that of G7U C17U, 0.2; in that of G7U G33A, 0.11.
Regarding G7A U43C, the self-cleavage was 0.21.
As for G7A U43A, the self-cleavage came out at 0.32.
To G7A U43G belongs 0.15; to G7C U51C, 0.28; to G7A U67C, 0.25.
To G7A U67A belongs 0.17; to G7A U48A, 0.31; to G7A U48C, 0.16.
Consider G7C U41C, for which the self-cleavage was 0.2.
To G7C C32U belongs 0.12; to G7U C62G, 0.17.
As to G7U C62U, the self-cleavage stood at 0.21.
Take G7C U67C: the self-cleavage was determined as 0.19.
In the case of G7C A64G, the self-cleavage is 0.35.
G7U C29U: the self-cleavage came to 0.09.
In the case of G7C U69C it was 0.2; in that of G7U A57G, 0.19.
As for G7U G63A, the self-cleavage turned out to be 0.33.
With G7U C79A, the self-cleavage stood at 0.28.
Consider G7C U80C, for which the self-cleavage was 0.27.
In the case of G7C U80A it was 0.37; in that of G7C A35C, 0.09; in that of G7C A35G, 0.31.
In the case of G7C U54A it was 0.22; in that of G7C U54C, 0.34; in that of G7A C32U, 0.09.
In the case of G7C U25C it was 0.27; in that of G7C U25A, 0.27; in that of G7C C37U, 0.24.
Take G7C C50A: the self-cleavage worked out at 0.29.
With G7A G24A, the self-cleavage amounted to 0.08.
In the case of G7C it was 0.29.
To G7U belongs 0.25; to G7A U60C, 0.11.
Turning to G7A U60A, the self-cleavage stood at 0.37.
To G7A G46U belongs 0.39; to G7A G46A, 0.07; to G7A U78C, 0.15.
As to G7A U78G, the self-cleavage was 0.08.
With G7U U43C, the self-cleavage turned out to be 0.38.
As for G7U U43A, the self-cleavage worked out at 0.09.
In the case of G7C A47G it was 0.43.
In the case of G7A G73A it was 0.48; in that of G7U U41C, 0.21; in that of G7C A21G, 0.34.
In the case of G7U A56G it was 0.23; in that of G7U A56U, 0.16; in that of G7A G70C, 0.06.
As to G7U U31A, the self-cleavage amounted to 0.07.
G7U U31C: the self-cleavage amounted to 0.15.
To G7C G61C belongs 0.1.
